In patent US20140087995A1 (published 2014):
Numbered stars: 1 amine (or outer) side, 2 acyl side, 3 side chain; on linkers, the order of the positions; unused ones are H or OH. Bridge positions count the residues as written; N and C are the ends. Side chains are listed from the residue outwards. Ends that are not written are not given here. * marks the point of attachment. C20 diacid = O=C(O)CCCCCCCCCCCCCCCCCCC(=O)*; γGlu = O=C(O)[C@H](CCC(=O)[*:2])N[*:1]; AEEA = NCCOCCOCC(=O)O

T1: human calcitonin receptor (human, UniProt P30988 25-474)
T1 construct: whole, on cells; Membranes of a BHK tk'ts 13 cell line stably transfected with the human calcitonin receptor; also called hCTR; hCT
T1 sequence (looked up): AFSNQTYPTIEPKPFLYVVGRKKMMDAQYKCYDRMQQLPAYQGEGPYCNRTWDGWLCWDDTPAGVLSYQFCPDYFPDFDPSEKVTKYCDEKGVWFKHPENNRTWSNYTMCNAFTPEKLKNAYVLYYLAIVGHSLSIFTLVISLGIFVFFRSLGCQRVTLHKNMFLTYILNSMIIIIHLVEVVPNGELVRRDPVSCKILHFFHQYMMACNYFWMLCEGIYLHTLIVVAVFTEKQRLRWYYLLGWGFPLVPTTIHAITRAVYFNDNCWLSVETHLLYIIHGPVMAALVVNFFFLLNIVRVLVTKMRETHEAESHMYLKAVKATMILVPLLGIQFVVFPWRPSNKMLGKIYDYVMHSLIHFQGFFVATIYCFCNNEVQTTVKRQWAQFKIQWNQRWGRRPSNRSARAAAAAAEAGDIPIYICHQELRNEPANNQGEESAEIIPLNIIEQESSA

T2: rat amylin receptor (rat calcitonin receptor + rat RAMP 3) (rat, UniProt P32214 25-516; Q9JJ73 23-147)
T2 construct: whole, on cells; Membranes of BHK tk'ts 13 cells transiently transfected with the rat calcitonin receptor and rat RAMP 3; also called rAmylin-R; rat amylin 3(a) receptor
T2 sequence (looked up) 1: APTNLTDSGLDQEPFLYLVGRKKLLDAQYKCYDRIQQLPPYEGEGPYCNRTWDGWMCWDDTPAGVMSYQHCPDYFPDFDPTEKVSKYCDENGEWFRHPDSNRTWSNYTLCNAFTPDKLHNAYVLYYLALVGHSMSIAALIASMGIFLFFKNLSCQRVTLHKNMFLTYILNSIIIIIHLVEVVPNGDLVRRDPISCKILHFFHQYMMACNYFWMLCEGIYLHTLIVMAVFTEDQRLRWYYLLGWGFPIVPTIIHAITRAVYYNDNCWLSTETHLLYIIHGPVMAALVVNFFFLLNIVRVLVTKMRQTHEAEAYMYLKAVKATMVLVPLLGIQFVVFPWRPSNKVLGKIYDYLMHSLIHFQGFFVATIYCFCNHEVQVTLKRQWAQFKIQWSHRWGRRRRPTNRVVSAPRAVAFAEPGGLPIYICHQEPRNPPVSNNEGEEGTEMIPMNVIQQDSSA
T2 sequence (looked up) 2: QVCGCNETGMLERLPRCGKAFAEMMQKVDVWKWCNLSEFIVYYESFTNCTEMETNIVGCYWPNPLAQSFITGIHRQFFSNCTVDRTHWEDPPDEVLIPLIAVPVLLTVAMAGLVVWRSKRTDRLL

T3: rat calcitonin receptor (rat, UniProt P32214 25-516)
T3 construct: whole, on cells; Membranes of BHK tk'ts 13 cells transiently transfected with the rat calcitonin receptor; also called rCTR; rat calcitonin (a) receptor
T3 sequence (looked up): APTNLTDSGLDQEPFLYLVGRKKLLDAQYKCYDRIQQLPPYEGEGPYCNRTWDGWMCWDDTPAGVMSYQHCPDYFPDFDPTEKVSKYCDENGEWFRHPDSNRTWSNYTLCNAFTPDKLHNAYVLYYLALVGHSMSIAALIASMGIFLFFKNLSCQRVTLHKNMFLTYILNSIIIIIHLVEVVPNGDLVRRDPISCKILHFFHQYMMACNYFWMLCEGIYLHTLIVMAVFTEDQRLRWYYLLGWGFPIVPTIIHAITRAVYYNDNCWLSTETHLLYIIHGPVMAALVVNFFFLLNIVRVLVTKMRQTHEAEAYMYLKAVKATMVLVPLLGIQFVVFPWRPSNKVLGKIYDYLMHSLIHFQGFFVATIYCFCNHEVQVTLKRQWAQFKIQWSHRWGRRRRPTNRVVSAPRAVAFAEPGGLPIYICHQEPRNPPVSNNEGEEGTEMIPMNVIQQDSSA


Legend:
[1] = biological target: T1, human calcitonin receptor; test: IC50 at hCTR divided by IC50 at hAmylin-R (reference)
Protocol: The resulting pellet was resuspended, homogenized and centrifuged (20.000 rpm, 15 min) in a buffer containing 20 mM Na-HEPES and 0.1 mM EDTA (pH 7.4, buffer 2). The resulting pellet was resuspended in buffer 2 and protein concentration was measured (BCA protein Assay, Pierce). The homogenate was kept cold during the whole procedure. The membranes were kept at −80° C. until use. The assay was performed in a 384 well Optiplate (PerkinElmer) in a total volume of 40 ul. Membranes were mixed with SPA beads. Final concentration of membranes 35 ng/μL final and SPA beads was 0.05 mg/well. Test-compounds were dissolved in DMSO and further diluted in assay buffer (50 mM Hepes, pH 7.4, 1 mM CaCl2, 5 mM MgCl₂, 0.1% OA and 0.02% Tween20). […] The final mixture was incubated with shaking at 400 rpm for 120 min at 25° C. prior to centrifugation (1500 rpm, 10 min). Samples were analyzed on TopCounter™ (Packard). The IC₅₀ was calculated using (one site binding competition analysis) GraphPad Prism5 as a measure of receptor affinity.
Membranes were prepared in the following way; the cells were rinsed with PBS and incubated with Versene for approximately 5 min before harvesting. The cells were flushed with PBS and the cell-suspension was centrifuged for 5 min at 1000 rpm. Cells were homogenized (Ultrathurrax) in a buffer containing 20 mM Na-HEPES and 10 mM EDTA (pH 7.4) and centrifuged at 20.000 rpm for 15 min. The resulting pellet was resuspended, homogenized and centrifuged (20.000 rpm, 15 min) in a buffer containing 20 mM Na-HEPES and 0.1 mM EDTA (pH 7.4, buffer 2). The resulting pellet was resuspended in buffer 2 and protein concentration was measured (BCA protein Assay, Pierce). The homogenate was kept cold during the whole procedure. The membranes were kept at −80° C. until use. Assay was performed in a 384 well Optiplate (PerkinElmer) in a total volume of 40 ul. Membranes were mixed with SPA beads.

[2] = biological target: T2, rat amylin receptor (rat calcitonin …); test: SPA competition vs 125I-rat amylin, membranes with rat CTR + rat RAMP3 (Assay VI)
Protocol: The binding assay was performed using scintillation proximity assay (SPA) beads (RPNQ0001) from PerkinElmer and cell membranes from the Amylin 3(a)/CRE-luc cells (as described in Assay (II)) were used. Membranes were prepared in the following way; the cells were rinsed with PBS and incubated with Versene for approximately 5 min before harvesting. The cells were flushed with PBS and the cell-suspension was centrifuged for 5 min at 1000 rpm. Cells were homogenized (ultrathurrax) in a buffer containing 20 mM Na-HEPES and 10 mM EDTA (pH 7.4) and centrifuged at 20.000 rpm for 15 min. The resulting pellet was resuspended, homogenized and centrifuged (20.000 rpm, 15 min) in a buffer containing 20 mM Na-HEPES and 0.1 mM EDTA (pH 7.4, buffer 2). The resulting pellet was resuspended in buffer 2 and protein concentration was measured (BCA protein Assay, Pierce). The homogenate was kept cold during the whole procedure. The membranes were kept at −80° C. until use. The assay was performed in a 384 well Optiplate (PerkinElmer) in a total volume of 40 ul. Membranes were mixed with SPA beads. Final concentration of membranes 35 ng/μL final and SPA beads was 0.05 mg/well. Test-compounds were dissolved in DMSO and further diluted in assay buffer (50 mM Hepes, pH 7.4, 1 mM CaCl2, 5 mM MgCl₂, 0.1% OA and 0.02% Tween20). […] The final mixture was incubated with shaking at 400 rpm for 120 min at 25° C. prior to centrifugation (1500 rpm, 10 min). Samples were analyzed on TopCounter™ (Packard). The IC₅₀ was calculated using (one site binding competition analysis) GraphPad Prism5 as a measure of receptor affinity.
Cells were grown in DMEM with 10% FBS and 1% Pen/Strep. Approximately 48 hours after transfection, the cells were harvested and membranes were prepared.

rat calcitonin receptor = biological target: T3, rat calcitonin receptor; test: SPA competition vs 125I-calcitonin, membranes with rat CTR (Assay VIII)

Ratio hCT/hAmylin binding [1]	IC50 [2] [nM]	IC50 (rat calcitonin receptor) [nM]	Binder
26			{C20 diacid-γGlu-γGlu}-KCNTATCATQRLAEFLRHSSPNFGAIPSSTNVGSNTY-NH2 (disulfide 2-7; SMILES CC[C@H](C)[C@H](NC(=O)[C@H](C)NC(=O)CNC(=O)[C@H](Cc1ccccc1)NC(=O)[C@H](CC(N)=O)NC(=O)[C@@H]1CCCN1C(=O)[C@H](CO)NC(=O)[C@H](CO)NC(=O)[C@H](Cc1c[nH]cn1)NC(=O)[C@H](CCCNC(=N)N)NC(=O)[C@H](CC(C)C)NC(=O)[C@H](Cc1ccccc1)NC(=O)[C@H](CCC(=O)O)NC(=O)[C@H](C)NC(=O)[C@H](CC(C)C)NC(=O)[C@H](CCCNC(=N)N)NC(=O)[C@H](CCC(N)=O)NC(=O)[C@@H](NC(=O)[C@H](C)NC(=O)[C@@H]1CSSC[C@H](NC(=O)[C@H](CCCCN)NC(=O)CC[C@H](NC(=O)CC[C@H](NC(=O)CCCCCCCCCCCCCCCCCCC(=O)O)C(=O)O)C(=O)O)C(=O)N[C@@H](CC(N)=O)C(=O)N[C@@H]([C@@H](C)O)C(=O)N[C@@H](C)C(=O)N[C@@H]([C@@H](C)O)C(=O)N1)[C@@H](C)O)C(=O)N1CCC[C@H]1C(=O)N[C@@H](CO)C(=O)N[C@@H](CO)C(=O)N[C@H](C(=O)N[C@@H](CC(N)=O)C(=O)N[C@H](C(=O)NCC(=O)N[C@@H](CO)C(=O)N[C@@H](CC(N)=O)C(=O)N[C@H](C(=O)N[C@@H](Cc1ccc(O)cc1)C(N)=O)[C@@H](C)O)C(C)C)[C@@H](C)O, modifications are with respect to human amylin; also called compound 15)
	0.383	38	K([AEEA-γGlu-C20 diacid])CNTATCATQRLANFLRHSSPNFGAIPSSTNVGSRTY-NH2 (disulfide 2-7; N-terminus assumed; SMILES CC[C@H](C)[C@H](NC(=O)[C@H](C)NC(=O)CNC(=O)[C@H](Cc1ccccc1)NC(=O)[C@H](CC(N)=O)NC(=O)[C@@H]1CCCN1C(=O)[C@H](CO)NC(=O)[C@H](CO)NC(=O)[C@H](Cc1c[nH]cn1)NC(=O)[C@H](CCCNC(=N)N)NC(=O)[C@H](CC(C)C)NC(=O)[C@H](Cc1ccccc1)NC(=O)[C@H](CC(N)=O)NC(=O)[C@H](C)NC(=O)[C@H](CC(C)C)NC(=O)[C@H](CCCNC(=N)N)NC(=O)[C@H](CCC(N)=O)NC(=O)[C@@H](NC(=O)[C@H](C)NC(=O)[C@@H]1CSSC[C@H](NC(=O)[C@@H](N)CCCCNC(=O)COCCOCCNC(=O)CC[C@H](NC(=O)CCCCCCCCCCCCCCCCCCC(=O)O)C(=O)O)C(=O)N[C@@H](CC(N)=O)C(=O)N[C@@H]([C@@H](C)O)C(=O)N[C@@H](C)C(=O)N[C@@H]([C@@H](C)O)C(=O)N1)[C@@H](C)O)C(=O)N1CCC[C@H]1C(=O)N[C@@H](CO)C(=O)N[C@@H](CO)C(=O)N[C@H](C(=O)N[C@@H](CC(N)=O)C(=O)N[C@H](C(=O)NCC(=O)N[C@@H](CO)C(=O)N[C@@H](CCCNC(=N)N)C(=O)N[C@H](C(=O)N[C@@H](Cc1ccc(O)cc1)C(N)=O)[C@@H](C)O)C(C)C)[C@@H](C)O, modifications are with respect to human amylin; also called compound 38)
